This passage reports activity (% alleles cleaved) results from patent publication US20120128635.

For data set [1], the system named is ZFN SBS#11004 (N2 pair) (synthetic construct). Kind of data set: cell_activity. The settings on record: Cel-I assay in K562 day 3, as pair with SBS#9802; 34-47% in LP mouse liver in vivo (p174).
For data set [2], the system named is ZFN SBS#9802 (N2 pair) (synthetic construct). Kind of data set: cell_activity. The following applies: Cel-I assay in K562 day 3, as pair with SBS#11004; 34-47% in LP mouse liver in vivo (p174).

Sequence “GTACTAGGGGTATGGGGATAAACCAGAC (double strand) [hF9 intron 1 target of SBS#11004]” gave an activity (% alleles cleaved) in data set [1] of 30.
“TGACACAGTACCTGGCACCATAGTTGTA (double strand) [hF9 intron 1 target of SBS#9802]” registered an activity (% alleles cleaved) in data set [2] of 30.
